Source: patent publication US20240200091A1, “USE OF PROTOPORPHYRINOGEN OXIDASE” (BEIJING DABEINONG BIOTECHNOLOGY CO., LTD., priority 2021, published 2024)

Legend:
Format in all cases: in vivo
[1] = test system: transgenic maize plants; assay: saflufenacil tolerance of transgenic maize plants (spray, grade of pesticide damage); conditions: for tolerance to saflufenacil: maize; for The grade of pesticide damage/plant: number of plants of grade 0 / The grade of pesticide damage/plant: number of plants of grade 1 / The grade of pesticide damage/plant: number of plants of grade 2 / The grade of pesticide damage/plant: number of plants of grade 3: 7 DAT, 16 maize plants per genotype
[2] = test system: transgenic maize plants; assay: oxyfluorfen tolerance of transgenic maize plants (spray, grade of pesticide damage); conditions: for tolerance to oxyfluorfen: maize; for The grade of pesticide damage/plant: number of plants of grade 0 / The grade of pesticide damage/plant: number of plants of grade 1 / The grade of pesticide damage/plant: number of plants of grade 2 / The grade of pesticide damage/plant: number of plants of grade 3: 7 DAT, 16 maize plants per genotype
[3] = test system: transgenic maize plants; assay: flumioxazin tolerance of transgenic maize plants (spray, grade of pesticide damage); conditions: for The grade of pesticide damage/plant: number of plants of grade 0 / The grade of pesticide damage/plant: number of plants of grade 1 / The grade of pesticide damage/plant: number of plants of grade 2 / The grade of pesticide damage/plant: number of plants of grade 3: 7 DAT, 16 maize plants per genotype
[4] = saflufenacil 50 g ai/ha (2x field concentration)
[5] = saflufenacil 100 g ai/ha (4x field concentration)
[6] = oxyfluorfen 360 g ai/ha (2x field concentration)
[7] = oxyfluorfen 720 g ai/ha (4x field concentration)
[8] = flumioxazin 120 g ai/ha (2x field concentration)
[9] = flumioxazin 240 g ai/ha (4x field concentration)

B1: PPO1B: nucleotide sequence encoding protoporphyrinogen oxidase PPO1, maize common codon usage bias (nucleic acid)
DNA: ATGAAAGCGTTGGTTCTTTACAGTACAAGAGATGGTCAGACCCACGCCATTGCGAGCTATATCGCAAACTGCATGAAGGAGAAGTATGAATGTGACGTCATTGATCTCTTGCACGCGCAGCATGTCACCCTTAGCCGCTACGACAAGGTCCTTGTTGGGGCATCGATACGCTATGGCCATTTCAACGCCGTGCTGGACAAATTTGTTAAGCAGAATATACAACAGCTGAACTCCATGCCTTCTGCATTCTTCGCGGTAAATCTGACCGCTCGTAAGCCAGAAAAAAGGACACCACAAACAAATTCATACGTCAGAAAGTTCCTCCTAGGAACGCCGTGGAAGCCCGCCATGTGCGGTGTTTTTGCTGGCGCCTTGCGATACCCTCGGTATCGGTGGGTGGACAAGGTGATGATCCAATTAATCATGAGGATGACGGGGGGCGAGACTGATACTTCTAAAGAAGTGGAGTACACTGATTGGGAGCAGGTGAAAAAATTTGCTGAGGACTTCGGAAAGCTCTCCTACAAGAAGACGCTGTGA
modifications: The nucleotide sequence of PPO1B
[1]; saflufenacil at four-fold field concentration (100 g ai/ha)
  tolerance to saflufenacil: high-resistant tolerance
[1]; saflufenacil at two-fold field concentration (50 g ai/ha)
  tolerance to saflufenacil: high-resistant tolerance
[1]; [4]
  The grade of pesticide damage/plant: number of plants of grade 0: 16
  The grade of pesticide damage/plant: number of plants of grade 1: 0
  The grade of pesticide damage/plant: number of plants of grade 2: 0
  The grade of pesticide damage/plant: number of plants of grade 3: 0
[1]; [5]
  The grade of pesticide damage/plant: number of plants of grade 0: 16
  The grade of pesticide damage/plant: number of plants of grade 1: 0
  The grade of pesticide damage/plant: number of plants of grade 2: 0
  The grade of pesticide damage/plant: number of plants of grade 3: 0
[2]; oxyfluorfen at four-fold field concentration (720 g ai/ha)
  tolerance to oxyfluorfen: high-resistant tolerance
[2]; oxyfluorfen at two-fold field concentration (360 g ai/ha)
  tolerance to oxyfluorfen: high-resistant tolerance
[2]; [6]
  The grade of pesticide damage/plant: number of plants of grade 0: 16
  The grade of pesticide damage/plant: number of plants of grade 1: 0
  The grade of pesticide damage/plant: number of plants of grade 2: 0
  The grade of pesticide damage/plant: number of plants of grade 3: 0
[2]; [7]
  The grade of pesticide damage/plant: number of plants of grade 0: 16
  The grade of pesticide damage/plant: number of plants of grade 1: 0
  The grade of pesticide damage/plant: number of plants of grade 2: 0
  The grade of pesticide damage/plant: number of plants of grade 3: 0
[3]; [8]
  The grade of pesticide damage/plant: number of plants of grade 0: 16
  The grade of pesticide damage/plant: number of plants of grade 1: 0
  The grade of pesticide damage/plant: number of plants of grade 2: 0
  The grade of pesticide damage/plant: number of plants of grade 3: 0
[3]; [9]
  The grade of pesticide damage/plant: number of plants of grade 0: 16
  The grade of pesticide damage/plant: number of plants of grade 1: 0
  The grade of pesticide damage/plant: number of plants of grade 2: 0
  The grade of pesticide damage/plant: number of plants of grade 3: 0
[3]; maize, flumioxazin at different concentrations (120 and 240 g ai/ha)
  tolerance to flumioxazin: high-resistant tolerance
